Source: patent publication US9073974B2, “RGD-containing cyclic peptides” (The Regents of the University of California, priority 2009, dated 2015)
Read-outs that look alike come from different tables or passages of the source. Numbered stars: 1 amine (or outer) side, 2 acyl side, 3 side chain; on linkers, the order of the positions; unused ones are H or OH. Bridge positions count the residues as written; N and C are the ends. Square brackets hold non-standard residues; d marks the D form. Primed or numbered codes have the meaning given here. Ends that are not written are not given here. Peptide text beside a SMILES is read from it. * marks the point of attachment. Ebes(3) = 2,2'-ethylenedioxy bis(ethylamine) monosuccinamide, NCCOCCOCCNC(=O)CCC(=O)*; N(CH2CH2CO)Gly = O=C(CN(CCC(=O)[*:3])[*:1])[*:2]; Pro(5R-Ph) = O=C(O)[C@@H]1CC[C@H](c2ccccc2)N1; dAla(4-thiazolyl) = N[C@H](Cc1cscn1)C(=O)O; d(αMeV) = CC(C)[C@@](C)(N)C(=O)O; dCit = NC(=O)NCCC[C@@H](N)C(=O)O; Isobutyryl = CC(C)C(=O)*

Legend:
αvβ3 integrin [1] = biological target: αvβ3 integrin (Homo sapiens, UniProt P05106+P06756); assay: Inhibition of FITC-Echistatin binding to αvβ3-K562 cells (flow cytometry); design: expressed in transfected cells; host or cells: K562 (gift of Dr. Yoshikazu Takada, UC Davis); settings: for binding affinity compared with LXW7 or the Arg parent, in words: LXW1-8 series
Method: The samples were analyzed with Coulter XL-MCL flow cytometry. The histogram and mean fluorescence intensity (MFI) were determined. The apparent Kd, IC50 were calculated using Graph Prism software (≦www.graphpad.com≧).

U-87 MG xenograft = assay: In vivo and ex vivo near infra red fluorescent imaging, U-87 MG xenograft; design: species or system nude mice; settings: complex of Streptavidin-Cy5.5 with biotinylated peptide, 6 hrs after tail vein injection
Method: Animal studies were performed according to a protocol approved by IACUC of the University of California, Davis.
Animals were placed on a sheet of transparency in different position. […] Images were captured with a CCD camera set at F stop=0, FOV=150, and FP=0. Six hours post injection of imaging complex, the mice were conducted in vivo imaging, then were sacrificed and organs were excised for ex vivo imaging.

αvβ3 integrin [2] = biological target: T1, αvβ3 integrin (human, UniProt P06756 31-1048; P05106 27-788); assay: flow cytometry, competition with biotinylated LXW7 on αvβ3-K562 cells; + = IC50 >10 µM
T1 construct: whole, on cells; Same entry used for αvβ3-K562, U-87 MG and A375M cells; also called αvβ3-K562; αvβ3 transfected K562 cells

αvβ3 integrin [3] = biological target: T1, αvβ3 integrin; assay: flow cytometry, competition with FITC-Echistatin on αvβ3-K562 cells; ++ = IC50 1-10 µM
αvβ3 integrin [4] = biological target: T1, αvβ3 integrin; assay: flow cytometry, competition with biotinylated LXW7 on αvβ3-K562 cells; +++ = IC50 <1 µM
[5] = LXW1-8: inhibition of binding of FITC-Echistatin against αvβ3-K562, class symbols, read-out: IC50

T1 sequence (P06756 31-1048, chain 1 of 2): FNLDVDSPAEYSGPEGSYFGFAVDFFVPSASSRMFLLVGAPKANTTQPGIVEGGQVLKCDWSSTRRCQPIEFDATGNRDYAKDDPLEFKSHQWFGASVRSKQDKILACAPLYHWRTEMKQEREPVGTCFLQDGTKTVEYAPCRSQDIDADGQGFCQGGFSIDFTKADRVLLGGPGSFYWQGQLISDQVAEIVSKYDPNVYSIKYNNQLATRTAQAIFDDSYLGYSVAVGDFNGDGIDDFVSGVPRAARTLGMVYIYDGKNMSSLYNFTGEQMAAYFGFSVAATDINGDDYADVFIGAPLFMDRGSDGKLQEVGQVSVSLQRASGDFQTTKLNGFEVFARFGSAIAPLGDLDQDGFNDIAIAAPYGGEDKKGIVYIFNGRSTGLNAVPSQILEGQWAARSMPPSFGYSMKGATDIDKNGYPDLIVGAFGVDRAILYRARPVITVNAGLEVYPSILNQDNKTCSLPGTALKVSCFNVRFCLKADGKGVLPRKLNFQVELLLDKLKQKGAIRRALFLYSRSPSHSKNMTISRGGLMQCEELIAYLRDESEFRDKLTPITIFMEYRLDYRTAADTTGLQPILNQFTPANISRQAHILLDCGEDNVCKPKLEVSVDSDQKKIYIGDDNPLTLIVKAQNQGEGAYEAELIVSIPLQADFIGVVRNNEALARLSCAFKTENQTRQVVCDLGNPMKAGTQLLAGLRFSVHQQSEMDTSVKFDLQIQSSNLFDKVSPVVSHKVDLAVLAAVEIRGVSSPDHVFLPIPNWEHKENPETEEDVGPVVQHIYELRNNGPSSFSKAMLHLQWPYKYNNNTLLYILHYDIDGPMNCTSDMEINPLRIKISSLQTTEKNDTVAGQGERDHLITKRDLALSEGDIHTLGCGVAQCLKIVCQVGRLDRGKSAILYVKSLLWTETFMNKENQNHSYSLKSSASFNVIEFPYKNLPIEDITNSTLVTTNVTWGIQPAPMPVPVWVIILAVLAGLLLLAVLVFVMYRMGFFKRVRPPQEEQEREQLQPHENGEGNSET
T1 sequence (P05106 27-788, chain 2 of 2): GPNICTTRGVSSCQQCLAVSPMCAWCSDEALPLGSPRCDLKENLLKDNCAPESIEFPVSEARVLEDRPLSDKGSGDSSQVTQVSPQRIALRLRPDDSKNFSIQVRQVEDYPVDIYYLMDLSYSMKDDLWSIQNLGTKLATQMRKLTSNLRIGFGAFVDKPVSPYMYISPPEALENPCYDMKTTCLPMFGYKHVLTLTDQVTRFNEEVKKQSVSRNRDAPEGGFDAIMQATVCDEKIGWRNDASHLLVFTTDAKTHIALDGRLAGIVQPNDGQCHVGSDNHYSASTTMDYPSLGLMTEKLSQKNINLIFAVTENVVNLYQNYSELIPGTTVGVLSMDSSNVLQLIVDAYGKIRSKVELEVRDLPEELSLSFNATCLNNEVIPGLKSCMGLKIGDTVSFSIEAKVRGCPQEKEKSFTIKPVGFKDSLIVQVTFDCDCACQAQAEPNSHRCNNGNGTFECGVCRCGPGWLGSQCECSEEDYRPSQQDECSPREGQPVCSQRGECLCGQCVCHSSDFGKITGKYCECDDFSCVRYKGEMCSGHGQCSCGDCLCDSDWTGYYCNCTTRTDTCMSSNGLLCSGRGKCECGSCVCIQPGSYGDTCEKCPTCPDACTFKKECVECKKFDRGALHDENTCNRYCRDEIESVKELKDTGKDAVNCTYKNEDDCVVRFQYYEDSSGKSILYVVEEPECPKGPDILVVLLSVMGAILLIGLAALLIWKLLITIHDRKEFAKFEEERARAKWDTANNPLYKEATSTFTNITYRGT
Sequence of αvβ3 integrin (Homo sapiens, UniProt P05106+P06756) (P06756 31-889 limits assumed): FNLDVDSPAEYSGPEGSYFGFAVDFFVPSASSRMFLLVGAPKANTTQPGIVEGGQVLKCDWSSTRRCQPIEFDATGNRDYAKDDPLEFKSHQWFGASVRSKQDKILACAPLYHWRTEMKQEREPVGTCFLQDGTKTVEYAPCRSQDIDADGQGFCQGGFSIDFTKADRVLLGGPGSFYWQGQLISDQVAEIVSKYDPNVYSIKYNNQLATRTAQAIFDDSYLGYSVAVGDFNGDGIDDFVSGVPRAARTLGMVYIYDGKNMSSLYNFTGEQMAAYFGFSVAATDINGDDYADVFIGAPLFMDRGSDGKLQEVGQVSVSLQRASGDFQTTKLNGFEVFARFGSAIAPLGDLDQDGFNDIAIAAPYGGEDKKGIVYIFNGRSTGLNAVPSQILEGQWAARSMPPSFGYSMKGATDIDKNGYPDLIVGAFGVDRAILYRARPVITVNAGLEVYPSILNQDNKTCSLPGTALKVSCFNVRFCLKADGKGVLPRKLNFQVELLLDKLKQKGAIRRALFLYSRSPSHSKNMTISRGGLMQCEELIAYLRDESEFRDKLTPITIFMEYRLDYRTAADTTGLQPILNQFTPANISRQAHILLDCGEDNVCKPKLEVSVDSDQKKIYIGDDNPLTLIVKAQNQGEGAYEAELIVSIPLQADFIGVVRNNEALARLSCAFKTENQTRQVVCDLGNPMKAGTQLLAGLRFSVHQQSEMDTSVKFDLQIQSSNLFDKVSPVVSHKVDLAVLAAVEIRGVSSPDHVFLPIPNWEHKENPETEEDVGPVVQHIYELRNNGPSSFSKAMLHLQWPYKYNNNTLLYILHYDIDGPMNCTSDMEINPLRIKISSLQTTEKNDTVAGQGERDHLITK
Sequence of αvβ3 integrin (Homo sapiens, UniProt P05106+P06756) (P06756 891-1048 partner limits assumed): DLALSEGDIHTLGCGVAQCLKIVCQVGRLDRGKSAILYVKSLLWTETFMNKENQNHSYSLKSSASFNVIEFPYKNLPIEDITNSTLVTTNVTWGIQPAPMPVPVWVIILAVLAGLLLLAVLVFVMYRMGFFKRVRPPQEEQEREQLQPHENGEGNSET
Sequence of αvβ3 integrin (Homo sapiens, UniProt P05106+P06756) (P05106 27-788): as the sequence (P05106 27-788, chain 2 of 2) above

`N=C(N)NCCC[C@@H]1NC(=O)[C@H](CCCCNC(=O)CCC(=O)NCCOCCOCCNC(=O)CCC(=O)N[C@@H](CCCCNC(=O)CCCC[C@@H]2SC[C@@H]3NC(=O)N[C@@H]32)C(N)=O)NC(=O)[C@@H](Cc2ccccc2)NC(=O)[C@H](CC(=O)O)NC(=O)CNC1=O` [cyclo (RGDfK)-Bio, Biotinylated Cyclo(RGDfK), reference compound] gave an IC50 (αvβ3 integrin [1]; biotinylated peptides, read-out: IC50 (μM) Inhibit FITC-Echistatin binding with αvβ3-K562) of 1.37 ± 0.2 µM.

`N=C(N)NCCC[C@@H]1NC(=O)[C@H](CCC(=O)O)NC(=O)[C@@H](Cc2ccccc2)NC(=O)[C@H](CC(=O)O)NC(=O)CNC1=O` [cyclo(RGDfE)] was tested, and the “liver uptake, ex vivo imaging” value (U-87 MG xenograft) was “reverse” and the “tumor uptake, ex vivo imaging” value (U-87 MG xenograft) was “reverse”.

With `N=C(N)NCCC[C@@H]1NC(=O)CNC(=O)[C@H](N)CSSC[C@H](C(N)=O)NC(=O)[C@@H](CCC(=O)O)NC(=O)[C@@H](CO)NC(=O)[C@H](CC(=O)O)NC(=O)CNC1=O` [LXW3, cGRGDsec] (H-[dC]GRGD[dS][dE][dC]-NH2; disulfide 1-8) the IC50 (αvβ3 integrin [1]; [5]) was under 1 µM.

`N=C(N)NCCC[C@@H]1NC(=O)CNC(=O)[C@H](N)CSSC[C@H](C(N)=O)NC(=O)[C@@H](Cc2ccccc2)NC(=O)[C@@H](CC(=O)O)NC(=O)[C@H](CC(=O)O)NC(=O)CNC1=O` [LXW2, cGRGDdfc] (H-[dC]GRGD[dD][dF][dC]-NH2; disulfide 1-8) showed an IC50 (αvβ3 integrin [1]; [5]) of 1 to 10 µM.

In the case of `NCCCC[C@@H]1NC(=O)CNC(=O)[C@H](N)CSSC[C@H](C(N)=O)NC(=O)[C@@H](CO)NC(=O)[C@@H](CC(=O)O)NC(=O)[C@H](CC(=O)O)NC(=O)CNC1=O` [LXW6, cGKGDdsc] (H-[dC]GKGD[dD][dS][dC]-NH2; disulfide 1-8), the “binding affinity compared with LXW7 or the Arg parent, in words” value (αvβ3 integrin [1]) is reported as “decreased the affinity”.

`N=C(N)NCCC[C@@H]1NC(=O)CNC(=O)[C@H](N)CSSC[C@H](C(N)=O)NC(=O)[C@@H](Cc2ccccc2)NC(=O)[C@@H](CO)NC(=O)[C@H](CC(=O)O)NC(=O)CNC1=O` [LXW1, cGRGDsfc] (H-[dC]GRGD[dS][dF][dC]-NH2; disulfide 1-8) gave an IC50 (αvβ3 integrin [1]; [5]) of 1 to 10 µM.

In the case of `N=C(N)NCCC[C@@H]1NC(=O)[C@H](CCCCN)NC(=O)[C@@H](Cc2ccc(O)cc2)NC(=O)[C@H](CC(=O)O)NC(=O)CNC1=O` [cyclo (RGDyK), cyclo(RGDyK)], the “liver uptake, ex vivo imaging” value (U-87 MG xenograft) is reported as “reverse” and the “tumor uptake, ex vivo imaging” value (U-87 MG xenograft) is reported as “reverse”.

In the case of `N=C(N)NCCC[C@@H]1NC(=O)[C@H](CCCCN)NC(=O)[C@@H](Cc2ccccc2)NC(=O)[C@H](CC(=O)O)NC(=O)CNC1=O` [cyclo (RGDfK), cyclo(RGDfK)], the “liver uptake, ex vivo imaging” value (U-87 MG xenograft) is reported as “reverse” and the “tumor uptake, ex vivo imaging” value (U-87 MG xenograft) is reported as “reverse”.

For `NCCCC[C@@H]1NC(=O)CNC(=O)[C@H](N)CSSC[C@H](C(N)=O)NC(=O)[C@@H](CCC(=O)O)NC(=O)[C@@H](CO)NC(=O)[C@H](CC(=O)O)NC(=O)CNC1=O` [LXW4, cGKGDsec] (H-[dC]GKGD[dS][dE][dC]-NH2; disulfide 1-8), the “binding affinity compared with LXW7 or the Arg parent, in words” value (αvβ3 integrin [1]) was “decreased the affinity”.

Work on `N=C(N)NCCC[C@@H]1NC(=O)CNC(=O)[C@H](N)CSSC[C@H](C(N)=O)NC(=O)[C@@H](CO)NC(=O)[C@@H](CC(=O)O)NC(=O)[C@H](CC(=O)O)NC(=O)CNC1=O` [LXW5, cGRGDdsc] (H-[dC]GRGD[dD][dS][dC]-NH2; disulfide 1-8) yielded an IC50 (αvβ3 integrin [1]; [5]) of 1 to 10 µM.

With `CC(C)[C@H]1NC(=O)[C@@H](CC(=O)O)NC(=O)[C@H](CC(=O)O)NC(=O)CNC(=O)[C@H](CCCCN)NC(=O)CNC(=O)[C@H](N)CSSC[C@H](C(N)=O)NC1=O` [LXW8, cGKGDdvc] (H-[dC]GKGD[dD][dV][dC]-NH2; disulfide 1-8) the “binding affinity compared with LXW7 or the Arg parent, in words” value (αvβ3 integrin [1]) was “decreased the affinity”.

B1: LXW23 (peptide)
peptide: [dC]GRGD[dD][d(αMeV)][dC]-NH2
modifications: disulfide 1-8; N-terminus assumed
SMILES: CC(C)[C@@]1(C)NC(=O)[C@@H](CC(=O)O)NC(=O)[C@H](CC(=O)O)NC(=O)CNC(=O)[C@H](CCCNC(=N)N)NC(=O)CNC(=O)[C@H](N)CSSC[C@H](C(N)=O)NC1=O
With B1 the IC50 (αvβ3 integrin [2]) was over 10000 nM.

B2: LXW1 (peptide)
peptide: [dC]GRGD[dS][dF][dC]-NH2
modifications: disulfide 1-8; N-terminus assumed
SMILES: N=C(N)NCCC[C@@H]1NC(=O)CNC(=O)[C@H](N)CSSC[C@H](C(N)=O)NC(=O)[C@@H](Cc2ccccc2)NC(=O)[C@@H](CO)NC(=O)[C@H](CC(=O)O)NC(=O)CNC1=O
Molecule B2 has an IC50 (αvβ3 integrin [3]) of 1000 to 10000 nM.

B3: LXW2 (peptide)
peptide: [dC]GRGD[dD][dF][dC]-NH2
modifications: disulfide 1-8; N-terminus assumed
SMILES: N=C(N)NCCC[C@@H]1NC(=O)CNC(=O)[C@H](N)CSSC[C@H](C(N)=O)NC(=O)[C@@H](Cc2ccccc2)NC(=O)[C@@H](CC(=O)O)NC(=O)[C@H](CC(=O)O)NC(=O)CNC1=O
In the case of B3, the IC50 (αvβ3 integrin [3]) is reported as 1000 to 10000 nM.

B4: LXW57 (peptide)
peptide: {Ebes(3)}-[dC]GRGD[dD][dV][dC]-NH2
modifications: disulfide 1-8
SMILES: CC(C)[C@H]1NC(=O)[C@@H](CC(=O)O)NC(=O)[C@H](CC(=O)O)NC(=O)CNC(=O)[C@H](CCCNC(=N)N)NC(=O)CNC(=O)[C@H](NC(=O)CCC(=O)NCCOCCOCCN)CSSC[C@H](C(N)=O)NC1=O
B4 gave an IC50 (αvβ3 integrin [4]) of under 1000 nM.

B5: LXW68 (peptide)
peptide: [dC]GRGD[dD][dW][dC]-NH2
modifications: disulfide 1-8; N-terminus assumed
SMILES: N=C(N)NCCC[C@@H]1NC(=O)CNC(=O)[C@H](N)CSSC[C@H](C(N)=O)NC(=O)[C@@H](Cc2c[nH]c3ccccc23)NC(=O)[C@@H](CC(=O)O)NC(=O)[C@H](CC(=O)O)NC(=O)CNC1=O
B5 was tested, and the IC50 (αvβ3 integrin [4]) was under 1000 nM.

B6: LXW70 (peptide)
peptide: [dC]GRGD[dCit][Pro(5R-Ph)][dC]-NH2
modifications: disulfide 1-8; N-terminus assumed
SMILES: N=C(N)NCCC[C@@H]1NC(=O)CNC(=O)[C@H](N)CSSC[C@H](C(N)=O)NC(=O)[C@@H]2CC[C@H](c3ccccc3)N2C(=O)[C@@H](CCCNC(N)=O)NC(=O)[C@H](CC(=O)O)NC(=O)CNC1=O
For B6, the IC50 (αvβ3 integrin [2]) was over 10000 nM.

B7: LXW76 (peptide)
peptide: Isobutyryl-[dC]GRGD[dD][dV][dC]-NH2
modifications: disulfide 1-8
SMILES: CC(C)C(=O)N[C@@H]1CSSC[C@H](C(N)=O)NC(=O)[C@@H](C(C)C)NC(=O)[C@@H](CC(=O)O)NC(=O)[C@H](CC(=O)O)NC(=O)CNC(=O)[C@H](CCCNC(=N)N)NC(=O)CNC1=O
B7 showed an IC50 (αvβ3 integrin [4]) of under 1000 nM.

B8: LXW80 (peptide)
peptide: {3‑phenyl propionyl}-[dC]GRGD[dD][dV][dC]-NH2
modifications: disulfide 1-8
B8 was tested, and the IC50 (αvβ3 integrin [4]) was under 1000 nM.

B9: LXW83 (peptide)
peptide: {3,5‑dihydroxy benzoyl}-[dC]GRGD[dD][dV][dC]-NH2
modifications: disulfide 1-8
B9 was tested, and the IC50 (αvβ3 integrin [4]) was under 1000 nM.

B10: LXW84 (peptide)
peptide: {biphenyl‑4‑carbonyl}-[dC]GRGD[dD][dV][dC]-NH2
modifications: disulfide 1-8
With B10 the IC50 (αvβ3 integrin [4]) was under 1000 nM.

B11: LXW85 (peptide)
peptide: {4‑(trifluoromethyl)benzoyl}-[dC]GRGD[dD][dV][dC]-NH2
modifications: disulfide 1-8
With B11 the IC50 (αvβ3 integrin [4]) was under 1000 nM.

B12: LXW86 (peptide)
peptide: {2‑methylthiazole‑4‑carbonyl}-[dC]GRGD[dD][dV][dC]-NH2
modifications: disulfide 1-8
With B12 the IC50 (αvβ3 integrin [4]) was under 1000 nM.

B13: LXW89 (peptide)
peptide: {2‑naphthoyl}-[dC]GRGD[dD][dV][dC]-NH2
modifications: disulfide 1-8
B13 gave an IC50 (αvβ3 integrin [4]) of under 1000 nM.

B14: LXW5 (peptide)
peptide: [dC]GRGD[dD][dS][dC]-NH2
modifications: disulfide 1-8; N-terminus assumed
SMILES: N=C(N)NCCC[C@@H]1NC(=O)CNC(=O)[C@H](N)CSSC[C@H](C(N)=O)NC(=O)[C@@H](CO)NC(=O)[C@@H](CC(=O)O)NC(=O)[C@H](CC(=O)O)NC(=O)CNC1=O
Work on B14 yielded an IC50 (αvβ3 integrin [3]) of 1000 to 10000 nM.

B15: LXW39 (peptide)
peptide: CGRGD[dD][dAla(4-thiazolyl)]C-NH2
modifications: disulfide 1-8; N-terminus assumed
SMILES: N=C(N)NCCC[C@@H]1NC(=O)CNC(=O)[C@@H](N)CSSC[C@@H](C(N)=O)NC(=O)[C@@H](Cc2cscn2)NC(=O)[C@@H](CC(=O)O)NC(=O)[C@H](CC(=O)O)NC(=O)CNC1=O
notes: also called CGRGDd-DTha-C
Work on B15 yielded an IC50 (αvβ3 integrin [2]) of over 10000 nM.

B16: LXW72 (peptide)
peptide: [dC]GRGD[N(CH2CH2CO)Gly][Pro(5R-Ph)][dC]-NH2
modifications: disulfide 1-8; N-terminus assumed
SMILES: N=C(N)NCCC[C@@H]1NC(=O)CNC(=O)[C@H](N)CSSC[C@H](C(N)=O)NC(=O)[C@@H]2CC[C@H](c3ccccc3)N2C(=O)CN(CCC(=O)O)C(=O)[C@H](CC(=O)O)NC(=O)CNC1=O
notes: also called cGRGD-NGlu-Ppca-c
With B16 the IC50 (αvβ3 integrin [2]) was over 10000 nM.
